# Measurements: paper PMC11940065 (2025)
# Positions count from the first letter of the chain named. Numbers in names are those of the source.
# B1: AHD1-UBAN E444F (domain or fragment)
# chain: QRLNKALEEALSIQTPPSSPPTAFGSPFGAGALLRKQELVTQNELLKQQVKIFEEDFQRERSDRERMNEEKEELKKQVEKLQAQVTLSNAQLK
# B2: AHD1-UBAN E425Q (domain or fragment)
# chain: B1 chain with E9Q, F28E
# Target: Methionine-1-linked triubiquitin (UniProt P0CG48 1-76; P0CG48 1-76; P0CG48 1-76)
# Assay: MST
# Chain of Methionine-1-linked triubiquitin (P0CG48 1-228, one chain of several): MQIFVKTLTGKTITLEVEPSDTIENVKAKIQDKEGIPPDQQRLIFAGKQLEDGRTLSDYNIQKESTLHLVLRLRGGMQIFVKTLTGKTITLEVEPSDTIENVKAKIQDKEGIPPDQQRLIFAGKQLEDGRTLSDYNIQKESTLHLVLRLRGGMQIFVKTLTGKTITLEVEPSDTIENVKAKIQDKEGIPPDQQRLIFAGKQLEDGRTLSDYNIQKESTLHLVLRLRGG
row,Binder,Kd [µM]
1,B1,3.52
2,B2,5.5
